From publication PMC4176361 come the findings set out here.

Test [1] deals with His-tagged RctB fragment C157 (Vibrio cholerae). The test can be described thus: SEC; Superdex 200 10/300 GL in RctB buffer; molar mass from peak position against protein standards. (In general: SEC sorts molecules by how far they enter the pores of the column.)
Test [2] has the same target. The test can be described thus: AUC; sedimentation velocity, 50 000 rpm, 20°C; 0.3M NaCl, 0.025M Tris-HCl (pH 8.0), 0.0005M EDTA, 5% (v/v) glycerol; C137, C157 and C208 loaded at 3.6, 15 and 5.8 μM.
Test [3] concerns the target His-tagged RctB fragment C208 (Vibrio cholerae). The test can be described thus: SEC; Superdex 200 10/300 GL in RctB buffer; molar mass from peak position against protein standards.
Test [4] shares this target. The test can be described thus: AUC; sedimentation velocity, 50 000 rpm, 20°C; 0.3M NaCl, 0.025M Tris-HCl (pH 8.0), 0.0005M EDTA, 5% (v/v) glycerol; C137, C157 and C208 loaded at 3.6, 15 and 5.8 μM.

As to “His-tagged RctB fragment C157 (domain or fragment)”, the stoichiometry N in test [1] and in test [2] was 2 in each case.

In the case of “His-tagged RctB fragment C208 (domain or fragment)”, the stoichiometry N in test [3] and in test [4] was 2 in each case.

For orientation: stoichiometry N means the number of molecules, sites or subunits per partner or assembly.
